The text below walks through data of patent EP2170953B1.

This assay deals with Aβ1-28 peptide, biotinylated (Anaspec). Kind of assay: ELISA on biotinylated peptide, Ab 10 µg/ml, mean of 2, background subtracted. The settings on record: remark: other sources report otherwise.
Sequence of Aβ1-28 peptide, biotinylated (Anaspec) (chain, as listed by the source): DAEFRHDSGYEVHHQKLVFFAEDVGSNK

B1: ACI-12-Ab-11 (antibody, V domains shown)
VL: QAVVTQESALTTSPGGTVILTCRSSTGAVTTSNYANWVQEKPDHLFTGLIGGTSNRAPGVPVRFSGSLIGDKAALTITGAQTEDDAMYFCALWYSTHYVFGGGTKVTVL
VH: QVQLQQSDAELVKPGASVKISCKVSGYTFTDHTIHWMKQRPEQGLEWIGYIYPRDGSTKYNEKFKGKATLTADKSSSTAYMQLNSLTSEDSAVYFCARDYGYAFDYWGQGTTLTVSS
modifications: here or on the partner: biotinylated (position not given)
For the molecule B1, the O.D. (mean) was -0.02 O.D.
